Biological target: inactive mutant of SARS-CoV-2 main protease M^pro (His41Ala, Cys145Ala) (SARS-CoV-2)
Assay: native MS

| Substance | stoichiometry N (peptide per M^pro dimer) |
| --- | --- |
| substrate peptide nsp5/6 (11-mer, P6 to P5') (from UniProt P0DTD1 3564-3574) | < 2 |
| substrate peptide nsp14/15 (11-mer, P6 to P5') (from UniProt P0DTD1 6447-6457) | < 2 |
